± gives the uncertainty stated by the source.
Assay: self-splicing fitness, log relative to wild type (ln ratio); higher = more splicing; Tetrahymena group I intron in knt gene, E. coli kanamycin selection, DiMSum; sequences stand for … in CUCUCU…GGAGGGAAAAGUUAUCAGGCAUGCACCUGGUAGCUAGUCUUUAAACCAAUAGAUUGCAUCGGUUUAAAAGGCAAGACCGUCAAAUUGCGGGAAAGGGGUCAACAGCCGUUCAGUACCAAGUCUCAGGGGAAACUUUGAGAUGGCCUUGCAAAGGGUAUGGUAAUAAGCUGACGGACAUGGUCCUAACCACGCAGCCAAGUCCUAAGUCAACAGAUCUUCUGUUGAUAUGGAUGCAGUUCACAGACUAAAUGUCGGUCGGGGAAGAUGUAUUCUUCUCAUAAGAUAUAGUCGGACCUCUCCUUAAUGGGAGCUAGCGGAUGAAGUGAUGCAACACUGGAGCCGCUGGGAACUAAUUUGUAUGCGAAAGUAUAUUGAUUAGUUUUGGAGUACUCGUGGUCG
Method in brief: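 Fitness was computed with DiMSum as the error-weighted combination of replicate fold changes, kanamycin versus none, each normalised to wild type. The library randomised all eight intron nucleotides of the P1ex region, with the intron placed in the knt kanamycin-resistance gene on pET-22b(+) in E. coli BL21(DE3). Six replicate transformations were grown overnight at 37°C or 30°C on LB agar with or without 25 μg/mL kanamycin, plus 100 μg/mL carbenicillin, 50 μM IPTG and 0.2% rhamnose. Pooled colonies were amplicon-sequenced on an Illumina HiSeq 2500.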

Sequence	self-splicing fitness (ln) (30 °C)	self-splicing fitness (ln) (37 °C)
CAACAGCAAUAUUACGACUC	-1.74 ± 0.11	-0.579 ± 0.12
CAACAGCAAUAUUACGAUAC	-3.29 ± 0.28	-2.91 ± 0.37
CAACAGCAAUAUUACGCGUA	-1.55 ± 0.093	-1.06 ± 0.088
CAACAGCAAUAUUACGCUAG	-3.53 ± 0.13	-2.6 ± 0.14
CAACAGCAAUAUUACGCUCU	-1.33 ± 0.079	-0.581 ± 0.1
CAACAGCAAUAUUACGGAGA	-3.07 ± 0.2	-1.82 ± 0.2
CAACAGCAAUAUUACGGCAU	-3.38 ± 0.12	-1.11 ± 0.09
CAACAGCAAUAUUACGGCCC		-2.06 ± 0.33
CAACAGCAAUAUUACGGCGG	-0.393 ± 0.056	0.0944 ± 0.082
CAACAGCAAUAUUACGGGAC	-4.18 ± 0.17	-2.99 ± 0.16
CAACAGCAAUAUUACGGUCG	-0.273 ± 0.041	0.0819 ± 0.056
CAACAGCAAUAUUACGUAUA	-2.76 ± 0.12	-1.55 ± 0.11
CAACAGCAAUAUUACGUCAG	-0.334 ± 0.053	-0.55 ± 0.066
CAACAGCAAUAUUACGUCGU	-3.65 ± 0.12	-2.16 ± 0.11
CAACAGCAAUAUUACGUGAA	-1.36 ± 0.056	-1.62 ± 0.1
CAACAGCAAUAUUACGUGCC	-3.31 ± 0.2	-1.59 ± 0.15
CAACAGCAAUAUUACGUGGU	-4.16 ± 0.12	-2.01 ± 0.096
CAAGAGCAAUAUUACGACUC	-2.72 ± 0.24	-1.84 ± 0.27
CAAGAGCAAUAUUACGACUG	-1.57 ± 0.12	-1.19 ± 0.19
CAAGAGCAAUAUUACGAGAU	-3.29 ± 0.29	-2.8 ± 0.28
CAAGAGCAAUAUUACGAGGU	-4.09 ± 0.24	-2.71 ± 0.23
CAAGAGCAAUAUUACGAGUU	-2.81 ± 0.13	-2.82 ± 0.18
CAAGAGCAAUAUUACGAUCU		-1.79 ± 0.31
CAAGAGCAAUAUUACGCACU	-3.06 ± 0.33	
CAAGAGCAAUAUUACGCCAU	-3.2 ± 0.23	-2.02 ± 0.28
CAAGAGCAAUAUUACGCGAC	-3.73 ± 0.23	-1.93 ± 0.13

Sequence	self-splicing fitness (ln) (30 °C)	self-splicing fitness (ln) (37 °C)
CAAGAGCAAUAUUACGCGGC	-3.74 ± 0.31	-3.52 ± 0.28
CAAGAGCAAUAUUACGCUAA	-3.93 ± 0.27	-1.52 ± 0.21
CAAGAGCAAUAUUACGGACG	-0.541 ± 0.074	0.217 ± 0.093
CAAGAGCAAUAUUACGGCAA	-3.01 ± 0.29	-3.03 ± 0.38
CAAGAGCAAUAUUACGUAAU	-2.63 ± 0.23	-2.7 ± 0.32
CAAGAGCAAUAUUACGUACU	-3.74 ± 0.21	-1.92 ± 0.2
CAAGAGCAAUAUUACGUAUU	-3.55 ± 0.23	-1.83 ± 0.19
CAAGAGCAAUAUUACGUUGA	-3.98 ± 0.36	-2.94 ± 0.21
CAAGAGCAAUAUUACGUUUA	-2.84 ± 0.26	-1.61 ± 0.23
CAAGAGCAAUAUUACGUUUC	-3.38 ± 0.24	-2.01 ± 0.26
CAAUAGCAAUAUUACGAGGC	-3.6 ± 0.33	-1.44 ± 0.31
CAAUAGCAAUAUUACGAUAU	-4.72 ± 0.34	-2.59 ± 0.22
CAAUAGCAAUAUUACGAUUU	-2.3 ± 0.091	-0.775 ± 0.084
CAAUAGCAAUAUUACGCAAG	-1.19 ± 0.1	-0.905 ± 0.14
CAAUAGCAAUAUUACGCCCA	-1.6 ± 0.41	
CAAUAGCAAUAUUACGCGCC		-1.04 ± 0.44
CAAUAGCAAUAUUACGCUGA	-3.11 ± 0.22	-1.85 ± 0.16
CAAUAGCAAUAUUACGCUGG	-1.32 ± 0.13	-0.734 ± 0.14
CAAUAGCAAUAUUACGGACA	-2.44 ± 0.16	-1.5 ± 0.15
CAAUAGCAAUAUUACGGCAA	-3.51 ± 0.38	-1.11 ± 0.22
CAAUAGCAAUAUUACGGCCA	-3.08 ± 0.3	-1.49 ± 0.32
CAAUAGCAAUAUUACGGGAU	-3.36 ± 0.31	-2.57 ± 0.35
CAAUAGCAAUAUUACGGUUG	-2.6 ± 0.12	-1.67 ± 0.12
CAAUAGCAAUAUUACGGUUU	-2.88 ± 0.13	-1.88 ± 0.15
CAAUAGCAAUAUUACGUAAC	-3.94 ± 0.35	-3.27 ± 0.43
CAAUAGCAAUAUUACGUAUC	-3.48 ± 0.15	-2.73 ± 0.18

Sequence	self-splicing fitness (ln) (30 °C)	self-splicing fitness (ln) (37 °C)
CAAUAGCAAUAUUACGUGAG	-0.424 ± 0.076	0.678 ± 0.11
CAAUAGCAAUAUUACGUGUG	-1.72 ± 0.053	-0.748 ± 0.063
CAAUAGCAAUAUUACGUUCC	-2.6 ± 0.26	-2.13 ± 0.35
CAAUAGCAAUAUUACGUUUG	-2.52 ± 0.11	-1.52 ± 0.11
CAAUAGCAAUAUUACGUUUU	-5.04 ± 0.25	-2.5 ± 0.13
CACAAGCAAUAUUACGAACU	-3.64 ± 0.19	-2.37 ± 0.17
CACAAGCAAUAUUACGAAGC	-4.44 ± 0.28	-1.87 ± 0.19
CACAAGCAAUAUUACGACUA	-1.02 ± 0.089	-1.21 ± 0.074
CACAAGCAAUAUUACGAGGA	-3.18 ± 0.25	-2.59 ± 0.19
CACAAGCAAUAUUACGAUUG	-2.41 ± 0.064	-1.15 ± 0.075
CACAAGCAAUAUUACGCAAC	-3.27 ± 0.26	-2.27 ± 0.32
CACAAGCAAUAUUACGCCCU	-3.12 ± 0.19	-0.633 ± 0.13
CACAAGCAAUAUUACGCGGU	-3.66 ± 0.15	-2.04 ± 0.12
CACAAGCAAUAUUACGCUAG	-2.72 ± 0.13	-1.43 ± 0.1
CACAAGCAAUAUUACGCUGU	-3.78 ± 0.17	-2.57 ± 0.18
CACAAGCAAUAUUACGCUUA	-2.27 ± 0.13	-2.15 ± 0.13
CACAAGCAAUAUUACGGACG	-0.358 ± 0.046	0.611 ± 0.072
CACAAGCAAUAUUACGGAGC	-3.77 ± 0.29	-3.25 ± 0.24
CACAAGCAAUAUUACGGAUC	-4.63 ± 0.39	-2.09 ± 0.13
CACAAGCAAUAUUACGGCAU	-3.26 ± 0.12	-2.33 ± 0.12
CACAAGCAAUAUUACGGCCU	-4.49 ± 0.24	-2.74 ± 0.24
CACAAGCAAUAUUACGGGCG	-0.358 ± 0.06	0.319 ± 0.07
CACAAGCAAUAUUACGGUAA	-2.26 ± 0.096	-2.21 ± 0.12
CACAAGCAAUAUUACGGUAC	-4.11 ± 0.22	-2.03 ± 0.17

Reference: the supplement of paper PMC7877785
